From US20230192819A1 (TWIST BIOSCIENCE, published 2023)
Values joined by “and” are separate entries in the source; they are usually repeats but may differ in a detail not shown here. Equal values may be shown once. Read-outs that look alike come from different tables or passages of the source.

B1: Antibody 1-1 (Fc fusion)
chain: EVQLVESGGGLVQPGGSLRLSCAASGSIGSINAMGWFRQAPGKEREWVAGISNGGTTNYADSVKGRFTISADNSKNTAYLQMNSLKPEDTAVYYCAADGVPEYSDYASGPVWGQGTLVTVSS
B2: Antibody 1-7 (Fc fusion)
chain: EVQLVESGGGLVQPGGSLRLSCAASGGTFSSIGMGWFRQAPGKEREFVAAISWDGGATAYADSVKGRFTISADNSKNTVYLQMNSLKPEDTAVYYCAKEDVGKPFDWGQGTLVTVSS

What was measured:
[1] = molecular target: T1, C52Hg Brazilian variant (Acro) spike protein (SARS-CoV-2, UniProt P0DTC2 16-1213); assay: SPR (Carterra LSA); […]; 1:1 model; […]
[2] = molecular target: Delta variant (Acro) spike protein (SARS-CoV-2, UniProt P0DTC2 16-1213)
[3] = molecular target: T1, C52Hg Brazilian variant (Acro) spike …
[4] = molecular target: T2, Acro S1 spike protein (SARS-CoV-2) (SARS-CoV-2, UniProt P0DTC2 16-685)
[5] = molecular target: T3, S1 variant B.1.1.7: UK (Acro) spike protein (SARS-CoV-2, UniProt P0DTC2 16-1213)
[6] = molecular target: T2, Acro S1 spike protein (SARS-CoV-2); assay: SPR (Carterra LSA); […]; 1:1 model; […]
[7] = molecular target: T4, C52Hk S. African variant (Acro) spike protein (SARS-CoV-2, UniProt P0DTC2 16-1213); assay: SPR (Carterra LSA); […]; 1:1 model; […]
[8] = molecular target: T1, C52Hg Brazilian variant (Acro) spike …; assay: SPR (Carterra LSA); antibody on chip, spike protein as analyte; summary table
[9] = molecular target: T4, C52Hk S. African variant (Acro) spike …; assay: as above
[10] = molecular target: T3, S1 variant B.1.1.7: UK (Acro) spike …; assay: as above
[11] = molecular target: T2, Acro S1 spike protein (SARS-CoV-2); assay: as above
[12] = molecular target: California Variant W152C_L452R_D614G
[13] = molecular target: T3, S1 variant B.1.1.7: UK (Acro) spike …; assay: SPR (Carterra LSA); […]; 1:1 model; […]
[14] = molecular target: T4, C52Hk S. African variant (Acro) spike …

Binder | Kd [1] [nM] | koff [1] [s⁻¹] | kon [1] [M⁻¹ s⁻¹] | Kd [2] | koff [2] | kon [2] | Kd [3] | koff [3] | kon [3] | kon [4] | Kd [6] [nM] | koff [6] [s⁻¹] | kon [6] [M⁻¹ s⁻¹] | Kd [7] [nM] | koff [7] [s⁻¹] | kon [7] [M⁻¹ s⁻¹] | Kd [8] [nM] | Kd [9] [nM] | Kd [10] [nM] | Kd [11] [nM] | also measured
B1 | 0.691 | 0.00038 | 550000 | 2.31 nM and 2.22 nM | 0.000433 s⁻¹ and 0.000358 s⁻¹ | 188000 M⁻¹ s⁻¹ and 161000 M⁻¹ s⁻¹ | 5.57 nM and 9.51 nM | 0.000724 s⁻¹ and 0.000956 s⁻¹ | 130000 M⁻¹ s⁻¹ and 100000 M⁻¹ s⁻¹ | 135000 M⁻¹ s⁻¹ and 112000 M⁻¹ s⁻¹ | 0.677 | 0.00042 | 620000 | 1.07 | 0.00058 | 540000 | 0.691 | 1.07 | 0.867 | 0.677 | Kd [4]: 2.8 nM and 4 nM; koff [4]: 0.000378 s⁻¹ and 0.000446 s⁻¹; Kd [5]: 0.82 nM and 2.06 nM; koff [5]: 0.00024 s⁻¹ and 0.000189 s⁻¹; IC50 [12]: 4.4 nM; Kd [13]: 0.867 nM; koff [13]: 0.00052 s⁻¹; kon [13]: 600000 M⁻¹ s⁻¹; Kd [14]: 6.2 nM; koff [14]: 0.000806 s⁻¹; kon [14]: 130000 M⁻¹ s⁻¹
B2 | 0.962 | 0.00025 | 260000 | 0.114 nM and 0.0579 nM | 1.87e-05 s⁻¹ and 1e-05 s⁻¹ | 164000 M⁻¹ s⁻¹ and 173000 M⁻¹ s⁻¹ | 8.53 nM and 12.5 nM | 0.00081 s⁻¹ and 0.00121 s⁻¹ | 95000 M⁻¹ s⁻¹ and 96200 M⁻¹ s⁻¹ | 130000 M⁻¹ s⁻¹ and 161000 M⁻¹ s⁻¹ | 1.31 | 0.00047 | 360000 | 1.36 | 0.00049 | 360000 | 0.962 | 1.36 | 1.11 | 1.31 | kon [5]: 144000 M⁻¹ s⁻¹ and 188000 M⁻¹ s⁻¹; IC50 [12]: 0.111 nM; Kd [13]: 1.11 nM; koff [13]: 0.0004 s⁻¹; kon [13]: 360000 M⁻¹ s⁻¹; Kd [14]: 8.2 nM and 7.9 nM; koff [14]: 0.000459 s⁻¹ and 0.000521 s⁻¹; kon [14]: 56000 M⁻¹ s⁻¹ and 66000 M⁻¹ s⁻¹
